Earlier results on 1 substance are cited in paper PMC3518592.

This series has as its target ubiquitin (UniProt P0CG48).

Vps9 CUE, sequence (P54787 405-451): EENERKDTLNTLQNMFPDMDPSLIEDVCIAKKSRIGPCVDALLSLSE

The Kd is the concentration at which binding is half-saturated. With Vps9 CUE (from UniProt P54787), the dissociation constant Kd is 20 µM.
